{"source": "patent US20210332115A1", "binders": {"B1": {"name": "Anti-factor Bb mouse monoclonal antibody (antibody, V domains shown)", "VH": "EVQLVESGGALVKPGGSLKLSCAASGFTFSNYAMSWVRQTPEKRLEWVATISNRGSYTYYPDSVKGRFTISRDNAKNTLYLQMSSLRSEDTALYYCARERPMDYWGQGTSVTVSS", "VL": "DIVMTQSHKFMSTSVGDRVSITCKASQDVGTAVAWYQQKPGQSPKLLIYWASTRHTGVPDRFTGSGSGTDFTLTITNVQSEDLAVYFCHQHSSNPLTFGAGTKLELK"}, "B2": {"name": "VH6/Vκ6 (antibody, V domains shown)", "VH": "B1 VH with A10G, K19R, T40A, E42G, T78S, S84N, S88A, S110L", "VL": "DIVMTQSPSFLSASVGDRVTITCKASQDVGTAVAWYQQKPGKAPKLLIYWASTRHTGVPDRFTGSGSGTDFTLTISSLQSEDFAVYFCHQHSSNPLTFGQGTKLEIK"}, "B3": {"name": "VH4/Vκ7 (antibody, V domains shown)", "VH": "B1 VH with A10G, K19R, T40A, E42G, T78S", "VL": "B2 VL with V3Q, F10T, T63S, S80A"}, "B4": {"name": "VH7/Vκ7 (antibody, V domains shown)", "VH": "B1 VH with A10G, K19R, T78S, S84N, S88A, S110L", "VL": "B2 VL with V3Q, F10T, T63S, S80A"}}, "target": "cynomolgus monkey factor Bb (cynomolgus monkey)", "assay": "BLI Octet, biotinylated antibody on SA biosensors", "note": "Numbering of substitutions follows the chain as printed.", "data": [{"binder": "B1", "values": [{"measurement": "Kd", "value": 11, "unit": "nM"}]}, {"binder": "B2", "values": [{"measurement": "Kd", "value": 11, "unit": "nM"}]}, {"binder": "B3", "values": [{"measurement": "Kd", "value": 11, "unit": "nM"}]}, {"binder": "B4", "values": [{"measurement": "Kd", "value": 16, "unit": "nM"}]}]}
